Results reported in the PETadex activity labels (doi:10.1016/j.jhazmat.2023.131574).

Columns and labels:
PCL; PBS; PHA; PLA; PUR = assay: Proxy for plastic degradation [Weight/mass loss]; settings: pH 7; 24 h

B1: unnamed (protein)
chain: MDGVLWRVRTAALMAALLALAAWALVWASPSVEAQSNPYQRGPNPTRSALTADGPFSVATYTVSRLSVSGFGGGVIYYPTGTSLTFGGIAMSPGYTADASSLAWLGRRLASHGFVVLVINTNSRFDGPDSRASQLSAALNYLRTSSPSAVRARLDANRLAVAGHSMGGGGTLRIAEQNPSLKAAVPLTPWHTDKTFNTSVPVLIVGAEADTVAPVSQHAIPFYQNLPSTTPKVYVELCNASHIAPNSNNAAISVYTISWMKLWVDNDTRYRQFLCNVNDPALCDFRTNNRHCQ
Km (p-NP-C10; 60 °C): 2.68 mM | kcat (p-NP-C10; 60 °C): 8.11 s⁻¹ | kcat/Km (p-NP-C10; 60 °C): 3030 s⁻¹ M⁻¹ | Km (p-NP-C2; 60 °C): 7.31 mM | kcat (p-NP-C2; 60 °C): 159 s⁻¹ | kcat/Km (p-NP-C2; 60 °C): 21800 s⁻¹ M⁻¹ | Km (p-NP-C4; 60 °C): 760 µM | kcat (p-NP-C4; 60 °C): 137 s⁻¹ | kcat/Km (p-NP-C4; 60 °C): 180000 s⁻¹ M⁻¹ | Km (p-NP-C8; 60 °C): 7.44 mM | kcat (p-NP-C8; 60 °C): 107 s⁻¹ | kcat/Km (p-NP-C8; 60 °C): 14300 s⁻¹ M⁻¹

B2: unnamed (protein)
chain: MSNGYSACPAPYDHRGMRKHASLLAALPVLLAACGTTTSTLTTPAVTPQTLSGAATNPYERGPAPTTALLEAARGPYATASTTVPRSSVSDFGGATIYYPTSTADGTFGGVAISPGYTGTQASVAWLGPRLASHGFVVIVIDTLSRYDYPSSRGDQLRAALRYLTTSSAVRTRVDATRLAVMGHSMGGGGALEAAKDNPALKAAIPLTPWNTDKSWPELTTPTLIFGAQNDSVAPVSSHAIPFYTSLASTLPKAYLELRGASHGAPTSTNTTIAKYAVAWLKRFEDADRRYDPFLCPTPAVSTLLSDARSTCPFN
Km (p-NP-C10; 50 °C): 0.93 mM | kcat (p-NP-C10; 50 °C): 2.47 s⁻¹ | kcat/Km (p-NP-C10; 50 °C): 2660 s⁻¹ M⁻¹ | Km (p-NP-C2; 50 °C): 0.9 mM | kcat (p-NP-C2; 50 °C): 27.5 s⁻¹ | kcat/Km (p-NP-C2; 50 °C): 30600 s⁻¹ M⁻¹ | Km (p-NP-C4; 50 °C): 190 µM | kcat (p-NP-C4; 50 °C): 30.8 s⁻¹ | kcat/Km (p-NP-C4; 50 °C): 162000 s⁻¹ M⁻¹ | Km (p-NP-C8; 50 °C): 1.29 mM | kcat (p-NP-C8; 50 °C): 11.3 s⁻¹ | kcat/Km (p-NP-C8; 50 °C): 8780 s⁻¹ M⁻¹

B3: unnamed (protein)
chain: MSNGYSACPAPYDHRGMRKHASLLAALPVLLAACGTTTSTLTTPAVTPQTLSGAATNPYERGPAPTTALLEAARGPYATASTTVPRSSVSDFGGATIYYPTSTADGTFGGVAISPGYTGTQASVAWLGPRLASHGFVVIVIDTLSRYDYPSSRGDQLRAALRYLTTSSAVRTRVDATRLAVMGHSMGGGGALEAAKDNPALKAAIPLTPWNTDKSWPELTTPTLIFGAQNDSVAPVSSHAIPFYTSLASTLPKAYLELRGASHGAPTSTNTTIAKYAVAWLKRFDADARRYDPFLCPTPAVSTLLSDARSTCPFN
Proxy for plastic degradation (PCL; PBS; PHA; PLA; PUR): 79%
